Source: article PMC8626583, “Collagen’s primary structure determines collagen:HSP47 complex stoichiometry” (The Journal of Biological Chemistry, 2021)
Values joined by “and” are separate entries in the source; they are usually repeats but may differ in a detail not shown here. Identical values can stand only once.

Assays:
[1] = biological target: T1, foldon-stabilized collagen model peptide with the guest GPRGFP; test: AUC; sedimentation velocity with fluorescence detection; ATTO488-labelled foldon CMP at 1 μM with HSP47 at ratios (CMP:HSP47) 1:1 to 1:20; 20 mM HEPES, 150 mM NaCl pH 7.5; 42,000 rpm
[2] = biological target: T2, foldon-stabilized collagen model peptide with the guest GPRGPP; test: as above
[3] = biological target: T1, foldon-stabilized collagen model …; test: ELISA; collagen model peptides or collagen I coated on Nunc MaxiSorp (500 ng/well), blocked with 1% BSA in TBS; soluble HSP47 in a 1:4 dilution series from 8 or 10 μM; detected by anti-His-HRP; triplicates, four-parameter logistic fit
[4] = biological target: T2, foldon-stabilized collagen model …; test: as above

stoichiometry N (HSP47 per CMP trimer) [1]: 1
stoichiometry N (HSP47 per CMP trimer) [2]: 2
Kd [3]: 12 nM
Kd [4]: 36 nM and 21.7 nM
B1: HSP47 (heat shock protein 47), Canis lupus, residues 36-418 with C-terminal hexahistidine tag, C7C419 36-418 (natural protein)
chain: LSPKAATLAERSAGLAFSLYQAMAKDQAVENILLSPVVVASSLGLVSLGGKATTASQAKAVLSAEQLRDEEVHAGLGELLRSLSNSTARNVTWKLGSRLYGPSSVSFAEDFVRSSKQHYNCEHSKINFRDKRSALQSINEWAAQTTDGKLPEVTKDVERTDGALLVNAMFFKPHWDEKFHHKMVDNRGFMVTRSYTVGVTMMHRTGLYNYYDDEKEKLQIVEMPLAHKLSSLIILMPHHVEPLERLEKLLTKEQLKIWMGKMQKKAVAISLPKGVVEVTHDLQKHLAGLGLTEAIDKNKADLSRMSGKKDLYLASVFHATAFEWDTEGNPFDQDIYGREELRSPKLFYADHPFIFLVRDTQSGSLLFIGRLVRPKGDKMRDEL
